The source of these data is patent US20110008766A1 (AbbVie / Abbott, published 2011).

By Kd is commonly meant the free concentration of one partner at which half of the binding sites on the other are occupied at equilibrium, for simple one-to-one binding.

One test addresses T1, interleukin 18 (IL-18) (UniProt Q14116 37-193).
T1 construct: ALEXA Fluor 488-labelled in the FRET assay
Put plainly: FRET quenching titration in solution; outer domain (IL-18 1-4091); outer domain (IL-18 1-4091). As for the experimental part: (§1) Briefly, the dissociation constants for the outer variable binding domain and the inner variable binding domain of a given DVD-Ig and its corresponding antigen were measured in direct binding experiments. […] After 30 minutes of incubation, all samples were measured on an SLM 8100 photon counting spectrofluorimeter. Samples were excited at 480 nm, and the emission was collected through a 530 nm (30 nm bandwidth) interference filter (Chroma Technology Corp., Rockingham, Vt.). All binding measurements were performed in 10 mM HEPES buffer, pH 7.4, containing 0.15 M NaCl, 3 mM EDTA, and 0.005% surfactant P20.
(§2) where Ligandₜₒₜₐₗ and ABSₜₒₜₐₗ are the -antigen concentrations and the total DVD-Ig binding sites for that antigen, respectively, and Fbound is the fraction of bound antigen. The binding data were fitted with a simple binding model to obtain the equilibrium dissociation constant (KD) according to equation [2]: […]

The target in test [1] is T2, brain natriuretic peptide (BNP) (UniProt P16860 103-134).
T2 construct: ALEXA Fluor 488-labelled in the FRET assay
Put plainly: FRET quenching titration in solution; ALEXA 488-antigen, BHQ-labelled binder. The procedure: as §1, §2

The target in test [2] is T3, neutrophil gelatinase associated lipocalin (NGAL) (UniProt P80188 21-198).
T3 construct: also called recombinant NGAL
T3 sequence (P80188 21-198 limits assumed): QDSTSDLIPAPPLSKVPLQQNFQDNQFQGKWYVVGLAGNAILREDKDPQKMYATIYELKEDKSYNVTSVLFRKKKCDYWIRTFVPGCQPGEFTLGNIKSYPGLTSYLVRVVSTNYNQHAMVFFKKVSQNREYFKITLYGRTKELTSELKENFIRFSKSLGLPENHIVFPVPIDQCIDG
The test can be described thus: FRET quenching titration in solution; one value given for outer and inner domain. As for the experimental part: as §1, §2

Test [3] has as its target T3, neutrophil gelatinase associated …. The test can be described thus: FRET quenching titration in solution; ALEXA 488-antigen, BHQ-labelled binder. As for the experimental part:
as §1, §2

In test [4] the target is T2, brain natriuretic peptide (BNP). Put plainly: FRET quenching titration in solution; one value given for outer and inner domain. The procedure:
as §1, §2

For test [5], the target named is T3, neutrophil gelatinase associated …. The test can be described thus: FRET quenching titration in solution; one value printed for outer (2322) and inner (903) domain. As for the experimental part: as §1, §2
For test [6] the target is unchanged. The test can be described thus: FRET quenching titration in solution; inner domain (NGAL 1-2322-455); inner domain (NGAL 1-2322-455). The procedure: as §1, §2

B1: DVD730 (bispecific antibody)
VH: QVQLQQPGSELVRPGASVKLSCKASGYTFTSYWMHWVKQRPGQGLEWIGNIYPGTVNTNYDEKFKNKATLTVDTSSSTAYMLLSSLTSEDSAVYYCTRDYYGGGLNYWGQGTTLTVSSASTKGPEVQLVESGGGLVQPGGSLKLSCAASGFTFNNYYMSWVRQTPERRLEWVAYISSSGGSTYYSDSVRGRFTISRDTARNTLYLQMTSLKSEDTAMYYCARHFGDYSYFDYWGQGTTLTVSS
VL: SIVMTQTPKFLLVSAGDRVTITCKASQSVSNDVAWFQQKPGQSPKLLIYYASNRYAGVPDRFTGSGFGTDFTFTISTVQAEDLAVYFCHQDYSSPRTFGGGTKLEIKRTVAAPDIQMTQSPASLSASVGETVTITCRASENFYSYLAWYQQKQGKSPQLLVYNAKTLAEGVPSRFSGSGSGTQFSLKINSLQPEDFGTYYCQHHYDIPLTFGAGTKLELKR
notes: also called DVD730 (IL18-2322-SS)
In the test with interleukin 18 (IL-18), B1 had a Kd of 0.6 nM.

B2: AB090 (antibody, V domains shown)
VH: QVQLQQPGAELVRPGASVKLSCKASGYTFTSYWMNWVKQRPEQGLEWIGRIDPYDSETHYNQKFKDKAILTVDKSSSTAFVQLTSLTSEDSAVYYCVSDGYWGAGTTVTVSS
VL: DVVMTQTPLTLSVTTGQPASISCKSSQSLLDSDGKTYLNWLFQRPGESPKLLIYVVSKLESGVPDRFTGSGSGTDFTLKISRVEAEDLGVYYCLQATHFPWTFGGGTKLEIKR
notes: also called BNP 3-631-436
On to B2, for which the Kd in test [1] came out at 0.3 nM.

B3: DVD719 (antibody)
VH: EVQLVESGGGLVQPGGSLKLSCAASGFTFNNYYMSWVRQTPERRLEWVAYISSSGGSTYYSDSVRGRFTISRDTARNTLYLQMTSLKSEDTAMYYCARHFGDYSYFDYWGQGTTLTVSSASTKGPSVFPLAPEVQLVESGGGLVQPGGSLKLSCAASGFTFNNYYMSWVRQTPERRLEWVAYISSSGGSTYYSDSVRGRFTISRDTARNTLYLQMTSLKSEDTAMYYCARHFGDYSYFDYWGQGTTLTVSS
VL: DIQMTQSPASLSASVGETVTITCRASENFYSYLAWYQQKQGKSPQLLVYNAKTLAEGVPSRFSGSGSGTQFSLKINSLQPEDFGTYYCQHHYDIPLTFGAGTKLELKRTVAAPSVFIFPPDIQMTQSPASLSASVGETVTITCRASENFYSYLAWYQQKQGKSPQLLVYNAKTLAEGVPSRFSGSGSGTQFSLKINSLQPEDFGTYYCQHHYDIPLTFGAGTKLELKR
notes: also called DVD719 (2322-2322-LL)
Molecule B3 showed an equilibrium dissociation constant (Kd) in test [2] of under 0.05 nM.

B4: AB082 (antibody, V domains shown)
VH: EVQLVESGGGLVQPGGSLKLSCAASGFTFNNYYMSWVRQTPERRLEWVAYISSSGGSTYYSDSVRGRFTISRDTARNTLYLQMTSLKSEDTAMYYCARHFGDYSYFDYWGQGTTLTVSS
VL: DIQMTQSPASLSASVGETVTITCRASENFYSYLAWYQQKQGKSPQLLVYNAKTLAEGVPSRFSGSGSGTQFSLKINSLQPEDFGTYYCQHHYDIPLTFGAGTKLELKR
notes: also called AB082 (2322); Chimeric mAb 2322
The molecule B4 returned a dissociation constant (Kd) in test [3] of under 0.05 nM.

B5: DVD738 (bispecific antibody)
VH: QIQLVQSGPELRKPGETVKISCKGSGYTFTHYGINWVKQTPRKDLKWMGWINTHTGEAYYADDFKGRFAFSLETSANTAYLQINNLNNGDMGTYFCTRSHRFGLDYWGQGTSVTVSSASTKGPSVFPLAPQVQLQQPGAELVRPGASVKLSCKASGYTFTSYWMNWVKQRPEQGLEWIGRIDPYDSETHYNQKFKDKAILTVDKSSSTAFVQLTSLTSEDSAVYYCVSDGYWGAGTTVTVSS
VL: DNVLTQSPPSLAVSLGQRATISCKANWPVDYNGDSYLNWYQQKPGQPPKFLIYAASNLESGIPARFSGSGSGTDFNLNIHPVEEEDAATYYCQQSNEDPFTFGSGTKLEIKRTVAAPSVFIFPPDVVMTQTPLTLSVTTGQPASISCKSSQSLLDSDGKTYLNWLFQRPGESPKLLIYVVSKLESGVPDRFTGSGSGTDFTLKISRVEAEDLGVYYCLQATHFPWTFGGGTKLEIKR
notes: also called DVD738H/DVD738L
In test [4], B5 displayed a Kd of under 0.03 nM.

B6: DVD723 (bispecific antibody)
VH: EVQLVESGGGLVQPGGSLKLSCAASGFTFNNYYMSWVRQTPERRLEWVAYISSSGGSTYYSDSVRGRFTISRDTARNTLYLQMTSLKSEDTAMYYCARHFGDYSYFDYWGQGTTLTVSSASTKGPSVFPLAPKIQLVQSGPELKKPGETVKISCKASGYTFTNYGMNWVKQAPGKGLKWMGWININTGEPTYAEEFKGRFAFSLETSATTAFLQINNLKNEDTATYLCARDSYSGGFDYWGQGTIVTVSS
VL: DIQMTQSPASLSASVGETVTITCRASENFYSYLAWYQQKQGKSPQLLVYNAKTLAEGVPSRFSGSGSGTQFSLKINSLQPEDFGTYYCQHHYDIPLTFGAGTKLELKRTVAAPSVFIFPPDIVMTQSPSSLSVSAGEKVTLSCKSSQSLLISGDQKNYLAWYQQKPGQPPKLLIYGASTRDSGVPDRFTGSGSGADFTLTISSVQAEDLAVYYCQNDHSFPPTFGAGTKLELKR
notes: also called DVD723 (2322-903-LL)
In test [5], B6 displayed a dissociation constant Kd of under 0.2 nM.

B7: DVD720 (antibody)
VH: EVQLVESGGGLVQPGGSLKLSCAASGFTFNNYYMSWVRQTPERRLEWVAYISSSGGSTYYSDSVRGRFTISRDTARNTLYLQMTSLKSEDTAMYYCARHFGDYSYFDYWGQGTTLTVSSASTKGPEVQLVESGGGLVQPGGSLKLSCAASGFTFNNYYMSWVRQTPERRLEWVAYISSSGGSTYYSDSVRGRFTISRDTARNTLYLQMTSLKSEDTAMYYCARHFGDYSYFDYWGQGTTLTVSS
VL: DIQMTQSPASLSASVGETVTITCRASENFYSYLAWYQQKQGKSPQLLVYNAKTLAEGVPSRFSGSGSGTQFSLKINSLQPEDFGTYYCQHHYDIPLTFGAGTKLELKRTVAAPDIQMTQSPASLSASVGETVTITCRASENFYSYLAWYQQKQGKSPQLLVYNAKTLAEGVPSRFSGSGSGTQFSLKINSLQPEDFGTYYCQHHYDIPLTFGAGTKLELKR
notes: also called DVD720 (2322-2322-SS)
In test [2], B7 gave a dissociation constant Kd of under 0.07 nM.

B8: DVD731 (bispecific antibody)
VH: QVQLQQPGSELVRPGASVKLSCKASGYTFTSYWMHWVKQRPGQGLEWIGNIYPGTVNTNYDEKFKNKATLTVDTSSSTAYMLLSSLTSEDSAVYYCTRDYYGGGLNYWGQGTTLTVSSASTKGPSVFPLAPEVQLVESGGGLVQPGGSLKLSCAASGFTFNNYYMSWVRQTPERRLEWVAYISSSGGSTYYSDSVRGRFTISRDTARNTLYLQMTSLKSEDTAMYYCARHFGDYSYFDYWGQGTTLTVSS
VL: SIVMTQTPKFLLVSAGDRVTITCKASQSVSNDVAWFQQKPGQSPKLLIYYASNRYAGVPDRFTGSGFGTDFTFTISTVQAEDLAVYFCHQDYSSPRTFGGGTKLEIKRTVAAPSVFIFPPDIQMTQSPASLSASVGETVTITCRASENFYSYLAWYQQKQGKSPQLLVYNAKTLAEGVPSRFSGSGSGTQFSLKINSLQPEDFGTYYCQHHYDIPLTFGAGTKLELKR
notes: also called DVD731 (IL18-2322-LL)
On to B8, for which the Kd in the test with interleukin 18 (IL-18) was found to be 0.9 nM; in test [6], 0.08 nM.

B9: AB083 (antibody, V domains shown)
VH: KIQLVQSGPELKKPGETVKISCKASGYTFTNYGMNWVKQAPGKGLKWMGWININTGEPTYAEEFKGRFAFSLETSATTAFLQINNLKNEDTATYLCARDSYSGGFDYWGQGTIVTVSS
VL: DIVMTQSPSSLSVSAGEKVTLSCKSSQSLLISGDQKNYLAWYQQKPGQPPKLLIYGASTRDSGVPDRFTGSGSGADFTLTISSVQAEDLAVYYCQNDHSFPPTFGAGTKLELKR
notes: also called AB083 (903); Chimeric mAb 903
Molecule B9 showed a Kd in test [3] of 0.7 nM.

B10: DVD721 (antibody)
VH: KIQLVQSGPELKKPGETVKISCKASGYTFTNYGMNWVKQAPGKGLKWMGWININTGEPTYAEEFKGRFAFSLETSATTAFLQINNLKNEDTATYLCARDSYSGGFDYWGQGTIVTVSSASTKGPSVFPLAPKIQLVQSGPELKKPGETVKISCKASGYTFTNYGMNWVKQAPGKGLKWMGWININTGEPTYAEEFKGRFAFSLETSATTAFLQINNLKNEDTATYLCARDSYSGGFDYWGQGTIVTVSS
VL: DIVMTQSPSSLSVSAGEKVTLSCKSSQSLLISGDQKNYLAWYQQKPGQPPKLLIYGASTRDSGVPDRFTGSGSGADFTLTISSVQAEDLAVYYCQNDHSFPPTFGAGTKLELKRTVAAPSVFIFPPDIVMTQSPSSLSVSAGEKVTLSCKSSQSLLISGDQKNYLAWYQQKPGQPPKLLIYGASTRDSGVPDRFTGSGSGADFTLTISSVQAEDLAVYYCQNDHSFPPTFGAGTKLELKR
notes: also called DVD721 (903-903-LL)
On to B10, for which the Kd in test [2] is under 0.3 nM.

B11: DVD736 (bispecific antibody)
VH: QVQLQQPGAELVRPGASVKLSCKASGYTFTSYWMNWVKQRPEQGLEWIGRIDPYDSETHYNQKFKDKAILTVDKSSSTAFVQLTSLTSEDSAVYYCVSDGYWGAGTTVTVSSASTKGPSVFPLAPQIQLVQSGPELRKPGETVKISCKGSGYTFTHYGINWVKQTPRKDLKWMGWINTHTGEAYYADDFKGRFAFSLETSANTAYLQINNLNNGDMGTYFCTRSHRFGLDYWGQGTSVTVSS
VL: DVVMTQTPLTLSVTTGQPASISCKSSQSLLDSDGKTYLNWLFQRPGESPKLLIYVVSKLESGVPDRFTGSGSGTDFTLKISRVEAEDLGVYYCLQATHFPWTFGGGTKLEIKRTVAAPSVFIFPPDNVLTQSPPSLAVSLGQRATISCKANWPVDYNGDSYLNWYQQKPGQPPKFLIYAASNLESGIPARFSGSGSGTDFNLNIHPVEEEDAATYYCQQSNEDPFTFGSGTKLEIKR
notes: also called DVD736H/DVD736L
Turning to B11, in test [4], the Kd is under 0.03 nM.
